Laboratory results taken from the supplement of paper PMC9170038.

Tested on: K4 kissing-loop RNA reporter
Assay: apparent KD of K4 kissing-loop reporter; higher = weaker reporter binding
Conditions: Eterna round: R107
Description: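 RNA-MaP round R107: designed RNA switches with theophylline, tryptophan, arginine or FMN aptamers are transcribed on-chip within common flanks. They are titrated with a labelled K4 kissing-loop RNA reporter in RNA-MaP buffer (100 mM Tris pH 7.5, 80 mM KCl, 4 mM MgCl2), without ligand or with the indicated ligand. Median apparent KD per design.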

[1] = input ligand: theophylline 20 uM
[2] = input ligand: tryptophan 2.4 mM
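Also: bound reporter read as fluorescence of individual clusters on recovered sequencing chips by microscopy, with normalized cluster intensities fitted with a binding model.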

| Sequence | apparent KD of K4 kissing-loop reporter (input ligand: FMN 200 uM) [nM] | apparent KD of K4 kissing-loop reporter (input ligand: arginine 13.2 mM) [nM] | apparent KD of K4 kissing-loop reporter (input ligand: none) [nM] | apparent KD of K4 kissing-loop reporter [1] [nM] | apparent KD of K4 kissing-loop reporter [2] [nM] |
| --- | --- | --- | --- | --- | --- |
| CCCUCACGAGUGAUGUUCGUAGGGUACAGUCAGGAUAUCAUGCGGUUGAGAAGGGACAGAGAGGGCGGCGGCGGGUUGCUCAUCG [Rabele] | 150 | 125 | 153 | 166 | 124 |
| AGAUUCGACACGGCCGCCACUCGUGGUGGAUUACCUAGUGUCGAAGUUGAGUGAUGUUCAACUACGAGGACCGGGUGUUGAGUCU [KL-XTryp-B7 #analogue] | 253 | 161 | 215 | 211 | 448 |
| UUAGGAGUGGGAGGAUAUCCUAAUGUGGGUGAUGUUAGUGAUGUUGAAAGUGUAGUGAUGUUGUGCGGAGAAGGUCCAGUGUUGA [BDazzled - #11 - Exc. FMN B] | 212 | 133 | 210 | 192 | 157 |
| GCUCGGGAGUGAUGUUCCAAGUGGUGUUAACGAGGACCGGUACGGCCGCCACUCGAUACGGCCGGGCCGUAGGAUAAACUGGAGC [Same State - Tryptophan A (Freestyle 13)] | 193 | 123 | 154 | 174 | 152 |
| UUUAACGAGUGAUGUUCGAAAAGUAAUGGUUAGGAUAUCGUUUUUUCGAGAAGGAACCUCGAAGUGAUACGAAAGUAUCGCUUCG [FMN A 2] | 173 | 428 | 264 | 466 | 240 |
| AUUUAGACGAGUGAUGUUCGUGUUAUUACAGAGGAUAUGCGUGAUUGCAGAAGGCUGUAUUUAUAUAUGUUAUGUGGUUUUAAAA [whbob_Ex_FMNA__2th186] | 79.7 | 102 | 90.7 | 102 | 69.9 |
| CGUAAGGAUUGACGACUGCAGAGCAAAAUAAAGGAUAUCGCAGCGUCGAGAAGGUUAUCGUGCGCCAGUGAUGUUGGCGGUAGUC [theeternabot_sameState_KL_FMN_A_22] | 84.1 | 135 | 108 | 181 | 87 |
| ACGAAGGAUGGAAGGAGCGCUCGUCAGUCCUGCGAGUGAUGUUCGUGGGUAAAUAUUCGCGAGCAGGUAGGUCGCCAUCUUGAAC [Veticeen] | 146 | 104 | 137 | 121 | 134 |
| UAGCGAUGAAGUGAUACCAGAGAGUGAUGUUCUUUUUUUAUUCAGAAUACUGUCGCCUUGCUCCCUUGGCAGCACGCAGGCGCAG [theeternabot_exclusion_KL_Theo_B_18] | 206 | 255 | 258 | 311 | 171 |
| GCCGUACGCAUGGAUACCAGCAACCCUGCCAUCCCAGUGAUGUUGGGAGGAACAUUCUCAUGCCCUUGGCAGCCAUGCGUACGGC | 534 | 358 | 473 | 384 | 459 |
| AGACUACCACACUGUCAAUAGACAGUGGACUAGGAUAUGCUGAUAAGCAGAAGGAGUGAUGUUCCAAGGUAGUCAAUAAAAUAAU [FmnAX 13 G28+A66] | 294 | 257 | 309 | 396 | 279 |
| CGAGUGAUGUUCGUUUUUUACUCUGUUUGACAGGAUAUGCGGAAACGCAGAAGGGUCACCUUUGAGUUAAACGGAGUUAUUUUUU [Ex FMN A 20] | 419 | 296 | 366 | 306 | 320 |
| GAACCAGAGGUUGCUGCGGGUUCCAGAGAUACCAGCCGUAUUGAAGGCCCUUGGCAGCUCGAGUGAUGUUCGAGCCGCCUCUGGC [Antius] | 118 | 96.8 | 120 | 103 | 103 |
| UGAUAGGACAGAAGGAGCGGCAGUGAUGUUGCCAAAAGGUUAAGGUGUCAAAAGACACCCUGCCAGGUAGGUCGCUGUCCUAUCU | 202 | 236 | 212 | 214 | 208 |
| AGAGUUAUGCGAGGAUAUGCGGUUAGUACUCAAAGAGUACUAACAGCAGAGUGAUGUUCUGUGAAAGCAGAAGGUGCAUAACUCA [Omei KL FMN B SS B v10] | 153 | 1060 | 1040 | 1120 | 1320 |
| ACACUUUACGUAGGAUAUGCGACGAGUGAUGUUCGUCAGGCGGCCUUAGAUUAAACAAGCCGCCUAGCAGAAGGACGGGCAGUGU [Qumatiri] | 133 | 155 | 201 | 154 | 159 |
| GGAUCCACCAGUGAUGUUGGAGAAAACUCCAAGGAUAUGACGAAAGUCAGAAGGUGGUAGACUGGACAAAGUCCGGUAGGAUCCA [FmnA10 A78] | 992 | 58.5 | 360 | 228 | 193 |
| UGAUAGGACAGAAGGAGCGGAAGUGAUGUUUCCAAAAGGGAAGGUCGACAAAGUCGACCCUUCCAGGUAGGUCGCUGUCCUAUCU [ArgBX 9 #Palindromic #SwitchBubble #StaticStem] | 75.9 | 72.5 | 73.9 | 86.1 | 68.7 |
| AUUAUAAAGGCGGCCGCCACUAGUGAUGUUAGUGACUUAUGUAUUAUCAUAAGAAUAAAAUAAAAUAGGACCGGGCCAAAAUAUU [AstrosExTryB#3] | 527 | 384 | 452 | 448 | 483 |
| GCUCAGGAGUGAUGUUCCAAGUGAUGUUAACGAGGACCGGUACGGCCGCCACUCGAUACGGCCGGACCGUAGGAUAAACUAGAGC [Same State - Tryptophan A (Freestyle 9)] | 200 | 171 | 183 | 313 | 244 |
| UAGGAGUGAUGUUCCAUAUCUUGAGCCGAAGGAGCGCCUUUAUAGGCAGGUAGGUCGCGGCAGAAGGUACCAGUGAUGUUGGAAA [Same State Arginine A GF6] | 147 | 147 | 164 | 145 | 135 |
| UGUCAUUGGUCGGCCGCCACUUCAAGGUCAAAGACCAAAGAGUGAUGUUCUUAGACGAAAGUCAGAAGGACCGGGACCGAUGACU [TrypBS 9 #SwitchBubble #K4Middle] | 318 | 144 | 204 | 245 | 727 |

| Sequence | apparent KD of K4 kissing-loop reporter (input ligand: FMN 200 uM) [nM] | apparent KD of K4 kissing-loop reporter (input ligand: arginine 13.2 mM) [nM] | apparent KD of K4 kissing-loop reporter (input ligand: none) [nM] | apparent KD of K4 kissing-loop reporter [1] [nM] | apparent KD of K4 kissing-loop reporter [2] [nM] |
| --- | --- | --- | --- | --- | --- |
| UUUGUAUCGGGAAGGAGCGUGAAUGAUAAUGGAUAUAGUGAUGUUAUAUAUAAGAACGAAUCGCAGGUAGGUCGCCCGGAUGACU [SSArgB.Q] | 431 | 388 | 413 | 400 | 252 |
| ACGGGCGGCUGAAGGAGCGGGCGGGCCCGAGUGAUGUUCGGGUGGGCCGUGAGGUCCGGAGCCCAGGUAGGUCGCGGUUCCGCCU [#2 Same State - Arginine B Attempt #14 (HarryS)] | 157 | 119 | 152 | 197 | 181 |
| GCCUAGCAGGGAAGGAGCGGCAUAGGCAUAGAUAAUAUGCAGUUAGUGAUGUUAACACUAUGCCAGGUAGGUCGCCCUGCUAGGC [KL-SSArg B8] | 201 | 95.4 | 192 | 120 | 125 |
| CAUACGCAUGGAGGAUAUGAGAUUACUCAUAUCAUUUAAUAUUCUCAGUGAUGUUGAGAUUUAAACUCAGAAGGCCAUGUGUAUG [Ex FMN B 12] | 262 | 331 | 358 | 356 | 380 |
| AUUCGAUCAGUGAUGUUGAUCAAAGUCGAAGGAGCGGACGAAAGUCCAGGUAGGUCGCGACUACAAGGUGUUAAGACACCUCGAA [Spvincent t9 mod #OpenEnded] | 246 | 211 | 237 | 208 | 224 |
| GCAGACACGCAGUGAUGUUGCGAAACGGAAGGAGCGCGUGAAAACGCAGGUAGGUCGCCGAAACAUAAAUUAUAAUUUUGUUUGC [Arginine A K4 13] | 244 | 194 | 221 | 240 | 177 |
| UUUGGAUUGCGCGAAGAGUGCAAGCGCCAACGAGGACCGGUACGGCCGCCACUCGCGGAGGAGUCCAGUGAUGUUGGACGGCCCG [Laraones] | 271 | 276 | 281 | 290 | 185 |
| UGUCAUUGGUCGGCCGCCACUUCAUAGAGAGUGAUGUUCUUAAAGACGGAUCGAAAGAUCUGUCGAAGGACCGGGACCGAUGACU [FiskerMod 9 - Jieux - Same State - Tryptophan B] | 997 | 676 | 1400 | 783 | 302 |
| AGAACUGUCUGAGAUACCAGCCAUAGGAGUGAUGUUCCUAGCUCCACAAAGUGGAGCCAUGGCCCUUGGCAGCUCAGACAGUUCA [Omei KL Theo B SS A v8] | 219 | 191 | 219 | 133 | 206 |
| AAUGUACAGGGAAGGAGCGUAGUCCAGUGAUGUUGGAAUUAAAUUCCUGCGAUGUUGGUUAUACAGGUAGGUCGCCCUAAAGUGC [KL-XARG-B22] | 367 | 351 | 436 | 497 | 344 |
| GCCGUAGAUGGAAGGAGCGAGUCCAAACCAUAUUGCUGAAAAUUCGAGUGAUGUUCGUAAGCUCAGGUAGGUCGCCAUCUACGGC | 206 | 184 | 209 | 161 | 187 |
| AACCGUGUGGCGGCCGCCACUAGUCUCCAGUGAUGUUGGAGAGAUCACGUAAGUGAUCUCCGACAUAGGACCGGGCCAUAUGGAA [Same State - Tryptophan B (Freestyle 24)] | 509 | 152 | 295 | 351 | 661 |
| GCAUCCAUGGCAGGAUAUAGGUUCGUGGAGUGAUGUUCCAUAACCCGAGUGAUGUUCGUUAUCCACCUAGAAGGGCCAUGGAUGC [whbob_Ex_FMNB__2th211] | 212 | 204 | 218 | 215 | 184 |
| ACGUAUAUCAGAGGAUAUCGUAUUAAUAUUUUAUCUAUAUAUUAUAGCAGUGAUGUUGCAAUUAUUCGAGAAGGCUGAUUUACGA [JR_SSFMNB_Sub023] | 144 | 170 | 139 | 194 | 100 |
| AAUUCAGUGAUGUUGGAAGGCAAGCGGGAUACCAGCGGAGAAUAACGCCCUUGGCAGCCCAUAUAUCCCAAAUAGAUAAUAGUUC [Same State - Theophylline A (Freestyle 4)] | 345 | 220 | 279 | 327 | 337 |
| GCCUGGGCACGAAGGAGCGCCGUGACAGGUUACUGCAUUGGGCAGUGAUGUUGCUCAAUCUGGCAGGUAGGUCGCGUGCCCAGGC | 106 | 114 | 110 | 120 | 113 |
| AAGUGAUGUUGUAGUGAUGUUGUGAUGUUGCAGGAUAUAUAGUGAUGUAGAAGGGUAUGUGCAGUUUUCAUAUUUGAGUGUUGAU [mkkhmullin] | 85.2 | 37.6 | 67.1 | 56.5 | 64.2 |
| GAUAUAGUGAUGUUAUAUACUGAUAGACAACGAGGACCGGUACGGCCGCCACUCGAGAGGGUGAAAUUAAUGAUAAAAUAAUAAU [ExyTryA#2] | 322 | 351 | 356 | 307 | 270 |
| UAUUAAUUGUCAGGAUAUCGUAUUCGAGUGAUGUUCGUAUAUCGACGAUAGUCGAUAUUAUUUAUACGAGAAGGGACAUUAUUUA [JR_SSFMNB_Sub005] | 292 | 260 | 330 | 274 | 285 |
| UGUGCCAAAUGUGAUACCAGCUUCCUGCAGUGAUGUUGCAUACGAGUGAUGUUCGUCCGAGGCCCUUGGCAGCGCAGUCGUUUGA [Same State Theophylline B GF 27] | 450 | 442 | 528 | 437 | 352 |
| GGGAAGUACGGAGGAUAUGCACUGAGGAGGAGAAUAUAGUGAUGUUAUAUAAGAGGAAGGAGAAGAGUAGAAGGCCGUGGAAAGG [SSFMNB.C] | 175 | 115 | 228 | 151 | 117 |
